For experiment [1], the target named is T1, Bd3459:Bd3460 complex (Bd3459^M/Bd3460) (Bdellovibrio bacteriovorus, UniProt Q6MHT0, K38M).
T1 construct: 1:1 heterodimer; with Ankyrin repeat protein (self-protection protein)
T1 sequence (Q6MHT0 38-446 K38M): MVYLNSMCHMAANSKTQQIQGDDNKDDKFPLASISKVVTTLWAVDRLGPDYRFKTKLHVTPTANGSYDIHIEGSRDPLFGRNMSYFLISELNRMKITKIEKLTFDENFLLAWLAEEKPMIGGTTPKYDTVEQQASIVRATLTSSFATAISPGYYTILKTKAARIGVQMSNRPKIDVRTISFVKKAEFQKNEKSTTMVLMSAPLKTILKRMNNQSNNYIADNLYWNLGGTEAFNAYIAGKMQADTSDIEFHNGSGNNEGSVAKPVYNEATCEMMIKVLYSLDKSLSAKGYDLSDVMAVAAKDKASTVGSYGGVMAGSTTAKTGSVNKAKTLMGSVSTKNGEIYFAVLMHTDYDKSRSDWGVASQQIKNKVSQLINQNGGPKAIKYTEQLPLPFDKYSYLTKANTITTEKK
T1 sequence (Q6MHS9 25-220 A25M partner limits assumed): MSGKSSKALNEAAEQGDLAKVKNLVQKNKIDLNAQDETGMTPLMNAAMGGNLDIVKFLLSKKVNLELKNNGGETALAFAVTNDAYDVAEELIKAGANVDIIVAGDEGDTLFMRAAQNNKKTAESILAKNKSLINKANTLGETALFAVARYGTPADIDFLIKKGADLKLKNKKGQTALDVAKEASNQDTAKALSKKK
As to the kind of experiment: X-ray crystallography, […] A, crystal soak. It is filed as binding. Conditions: covalent; acylation of active-site serine (Ser70) of Bd3459; pre-grown complex crystals soaked with 2 mM penicillin G for 1 h.

Experiment [2] has as its target Bd3459 DD-endopeptidase, purified, active site serine acylated by penicillin G (Bdellovibrio bacteriovorus HD100) (UniProt Q6MHT0). Description: other fluorescence titration; as a2, but Bd3459 pre-incubated with 0.75 mM penicillin G before titration with Bd3460.
In experiment [3] the target is T2, Bd3459 DD-endopeptidase, new construct starting post signal peptide with K38M, C-terminal H8 tag (Bdellovibrio bacteriovorus HD100, UniProt Q6MHT0 38-446, K38M).
T2 construct: Bd3459 of Bdellovibrio bacteriovorus HD100, predicted secreted form, starting post signal peptide with K38 mutated to become the new N-terminal methionine; The active site serine S70 is unchanged: the crystals of this complex could be acylated with penicillin G. PDB 5CEB holds the same limits with S70A; also called tagged Bd3459; Bd3459^M; source: E. coli T7 express, co-expressed from pCDF-Duet1 …
T2 sequence (looked up): T1 sequence (Q6MHT0 38-446 K38M)
Description: co-purification (His-tag affinity); H8-tagged endopeptidase and untagged Bd3460 co-expressed in E. coli and purified together on a His column; buffer C (20 mM imidazole pH 8.0, 0.4 M NaCl, 0.05% w/v Tween20). As to conditions: partners not purified.

For experiment [4], the target named is T3, Bd0816 DD-endopeptidase S58A (K26M start, C-terminal H8 tag) (Bdellovibrio bacteriovorus HD100, UniProt Q6MPN2 26-436, K26M | S58A).
T3 construct: Bd0816 of Bdellovibrio bacteriovorus HD100, starting at K26M; active site serine mutated to alanine (S58A); Expression of wild-type Bd0816 was toxic, so the S58A mutant was used for the complex; It is a trimer in the crystal, while a 1:1 heterodimer with Bd3460 is said to dominate in solution; also called Bd0816 S58A; tagged Bd0816; source: E. coli T7 express, co-expressed from pCDF-Duet1 with …
T3 sequence (looked up): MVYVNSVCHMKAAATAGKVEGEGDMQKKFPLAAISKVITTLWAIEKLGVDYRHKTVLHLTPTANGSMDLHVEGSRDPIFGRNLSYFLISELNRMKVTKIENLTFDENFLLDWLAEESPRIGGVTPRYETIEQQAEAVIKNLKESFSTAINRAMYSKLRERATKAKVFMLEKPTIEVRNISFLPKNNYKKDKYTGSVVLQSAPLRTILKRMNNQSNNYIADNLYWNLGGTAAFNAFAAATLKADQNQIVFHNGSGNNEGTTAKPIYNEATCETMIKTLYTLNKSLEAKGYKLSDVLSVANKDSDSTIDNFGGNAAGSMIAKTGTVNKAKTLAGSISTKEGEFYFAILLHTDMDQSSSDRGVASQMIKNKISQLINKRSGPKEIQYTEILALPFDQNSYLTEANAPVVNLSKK
Described as above. As to conditions: partners not purified.

The target of experiment [5] is Bd3459 DD-endopeptidase, purified (original construct, A37M start) (Bdellovibrio bacteriovorus HD100) (UniProt Q6MHT0). Description: other fluorescence titration; intrinsic tryptophan fluorescence, excitation 280 nm, change of emission at 340 nm; 10 uM Bd3459 in the cuvette, Bd3460 titrated in; 25 °C; buffer B with Tris (10 mM pH 7.2, 0.25 M NaCl); one site-specific binding isotherm.

On to `CC1(C)S[C@@H]2[C@H](NC(=O)Cc3ccccc3)C(=O)N2[C@H]1C(=O)O` [penicillin G], for which the “X-ray crystallography, 2.02 A, crystal soak” value in experiment [1] is recorded as “acylating pre-grown Bd3459:Bd3460 complex crystals with penicillin G”.

B1: Bd3460, exported domain (amino acids 26-220), untagged, co-expressed with an endopeptidase (natural protein, Bdellovibrio bacteriovorus HD100, UniProt Q6MHS9 25-220, looked up)
chain: T1 sequence (Q6MHS9 25-220 A25M partner limits assumed)
notes: The only change is the start methionine in place of A25; also called untagged Bd3460; source: E. coli T7 express, co-expressed from pCDF-Duet1 with the H8-tagged endopeptidase, co-purified (His column)
B1 had a fold reduction in affinity against unacylated Bd3459 in experiment [2] of 2 fold. The “stoichiometry N” value in experiment [3] and in experiment [4] was 1 throughout. In addition, the Kd in experiment [5] came out at 26.8 µM.
